The values that follow come from the Human Domainome abundance scans (Beltran et al. 2025).

± gives the uncertainty stated by the source.

First the molecules themselves.
B1: Death-inducer obliterator 1, residues 263 to 321; numbered along this chain, Q9BTC0 (parent)
chain: GYDPNALYCICRQPHNNRFMICCDRCEEWFHGDCVGISEARGRLLERNGEDYICPNCTI

The series covers variants of B1. Description: abundance fitness (aPCA) (normalised: wild type 0, dead -1); higher = more abundant; growth selection in yeast, the domain comes from the species named. The conditions noted are these: Homo sapiens.
For the variant GYDPNALYCICRQPHNNRFMICCDRCEEWFHGDCVGISEAEGRLLERNGEDYICPNCTI [R41E], the abundance fitness is 0.085 ± 0.11. For the variant GYDPNALYCICRQPHNNRFMICCDRCEEWFHGDCVGISEANGRLLERNGEDYICPNCTI [R41N], the abundance fitness worked out at 0.24 ± 0.12.

On to GYDPNALYCICRQPHNNRFMICCDRCEEWFHGDCVGISEAVGRLLERNGEDYICPNCTI [R41V], for which the abundance fitness was found to be 0.075 ± 0.068. With GYDPNALYCICRQPHNNRFMICCDRCEEWFHGDCVGISEAYGRLLERNGEDYICPNCTI [R41Y], the abundance fitness was -0.065 ± 0.17. With GYDPNALYCICRQPHNNRFMICCDRCEEWFHGDCVGISEAAGRLLERNGEDYICPNCTI [R41A], the abundance fitness was 0.075 ± 0.082. For GYDPNALYCICRQPHNNRFMICCDRCEEWFHGDCVGISEATGRLLERNGEDYICPNCTI [R41T], the abundance fitness is -0.099 ± 0.094. Take GYDPNALYCICRQPHNNRFMICCDRCEEWFHGDCVGISEAWGRLLERNGEDYICPNCTI [R41W]: the abundance fitness was -0.443 ± 0.16.

Regarding GYDPNALYCICRQPHNNRFMICCDRCEEWFHGDCVGISEAKGRLLERNGEDYICPNCTI [R41K], the abundance fitness was -0.008 ± 0.1. Regarding GYDPNALYCICRQPHNNRFMICCDRCEEWFHGDCVGISEAMGRLLERNGEDYICPNCTI [R41M], the abundance fitness was -0.05 ± 0.088.

Turning to GYDPNALYCICRQPHNNRFMICCDRCEEWFHGDCVGISEAIGRLLERNGEDYICPNCTI [R41I], the abundance fitness is -0.157 ± 0.13. Turning to GYDPNALYCICRQPHNNRFMICCDRCEEWFHGDCVGISEAQGRLLERNGEDYICPNCTI [R41Q], the abundance fitness was -0.193 ± 0.24. Under GYDPNALYCICRQPHNNRFMICCDRCEEWFHGDCVGISEASGRLLERNGEDYICPNCTI [R41S] stands 0.041 ± 0.085. Under GYDPNALYCICRQPHNNRFMICCDRCEEWFHGDCVGISEACGRLLERNGEDYICPNCTI [R41C] stands 0.062 ± 0.08; under GYDPNALYCICRQPHNNRFMICCDRCEEWFHGDCVGISEAPGRLLERNGEDYICPNCTI [R41P], 0.135 ± 0.093; under GYDPNALYCICRQPHNNRFMICCDRCEEWFHGDCVGISEALGRLLERNGEDYICPNCTI [R41L], -0.078 ± 0.071. Turning to GYDPNALYCICRQPHNNRFMICCDRCEEWFHGDCVGISEADGRLLERNGEDYICPNCTI [R41D], the abundance fitness was determined as 0.347 ± 0.2. GYDPNALYCICRQPHNNRFMICCDRCEEWFHGDCVGISEAGGRLLERNGEDYICPNCTI [R41G]: the abundance fitness was 0.037 ± 0.058. The same measure for GYDPNALYCICRQPHNNRFMICCDRCEEWFHGDCVGISEAFGRLLERNGEDYICPNCTI [R41F]: -0.133 ± 0.15; for GYDPNALYCICRQPHNNRFMICCDRCEEWFHGDCVGISEARERLLERNGEDYICPNCTI [G42E]: 0.25 ± 0.14; for GYDPNALYCICRQPHNNRFMICCDRCEEWFHGDCVGISEARWRLLERNGEDYICPNCTI [G42W]: 0.29 ± 0.086. Under GYDPNALYCICRQPHNNRFMICCDRCEEWFHGDCVGISEARIRLLERNGEDYICPNCTI [G42I] stands 0.193 ± 0.21; under GYDPNALYCICRQPHNNRFMICCDRCEEWFHGDCVGISEARFRLLERNGEDYICPNCTI [G42F], -0.029 ± 0.1. The same measure for GYDPNALYCICRQPHNNRFMICCDRCEEWFHGDCVGISEARSRLLERNGEDYICPNCTI [G42S]: -0.051 ± 0.13; for GYDPNALYCICRQPHNNRFMICCDRCEEWFHGDCVGISEARLRLLERNGEDYICPNCTI [G42L]: 0.062 ± 0.048. Regarding GYDPNALYCICRQPHNNRFMICCDRCEEWFHGDCVGISEARHRLLERNGEDYICPNCTI [G42H], the abundance fitness came to 0.245 ± 0.12.

GYDPNALYCICRQPHNNRFMICCDRCEEWFHGDCVGISEARNRLLERNGEDYICPNCTI [G42N]: the abundance fitness came to 0.334 ± 0.17.

Turning to GYDPNALYCICRQPHNNRFMICCDRCEEWFHGDCVGISEARYRLLERNGEDYICPNCTI [G42Y], the abundance fitness came out at 0.067 ± 0.082. The same measure for GYDPNALYCICRQPHNNRFMICCDRCEEWFHGDCVGISEARVRLLERNGEDYICPNCTI [G42V]: 0.069 ± 0.072. Take GYDPNALYCICRQPHNNRFMICCDRCEEWFHGDCVGISEARMRLLERNGEDYICPNCTI [G42M]: the abundance fitness amounted to 0.096 ± 0.067. The same measure for GYDPNALYCICRQPHNNRFMICCDRCEEWFHGDCVGISEARTRLLERNGEDYICPNCTI [G42T]: 0.017 ± 0.093; for GYDPNALYCICRQPHNNRFMICCDRCEEWFHGDCVGISEARCRLLERNGEDYICPNCTI [G42C]: 0.065 ± 0.18. Under GYDPNALYCICRQPHNNRFMICCDRCEEWFHGDCVGISEARPRLLERNGEDYICPNCTI [G42P] stands -0.151 ± 0.11; under GYDPNALYCICRQPHNNRFMICCDRCEEWFHGDCVGISEARRRLLERNGEDYICPNCTI [G42R], 0.315 ± 0.073; under GYDPNALYCICRQPHNNRFMICCDRCEEWFHGDCVGISEARDRLLERNGEDYICPNCTI [G42D], -0.044 ± 0.12.

Regarding GYDPNALYCICRQPHNNRFMICCDRCEEWFHGDCVGISEARQRLLERNGEDYICPNCTI [G42Q], the abundance fitness amounted to 0.048 ± 0.13.

GYDPNALYCICRQPHNNRFMICCDRCEEWFHGDCVGISEARGDLLERNGEDYICPNCTI [R43D]: the abundance fitness was -0.292 ± 0.2.

Take GYDPNALYCICRQPHNNRFMICCDRCEEWFHGDCVGISEARGKLLERNGEDYICPNCTI [R43K]: the abundance fitness came out at 0.057 ± 0.2. Under GYDPNALYCICRQPHNNRFMICCDRCEEWFHGDCVGISEARGTLLERNGEDYICPNCTI [R43T] stands -0.049 ± 0.11; under GYDPNALYCICRQPHNNRFMICCDRCEEWFHGDCVGISEARGVLLERNGEDYICPNCTI [R43V], -0.202 ± 0.097.

Regarding GYDPNALYCICRQPHNNRFMICCDRCEEWFHGDCVGISEARGYLLERNGEDYICPNCTI [R43Y], the abundance fitness was -0.044 ± 0.089. Take GYDPNALYCICRQPHNNRFMICCDRCEEWFHGDCVGISEARGELLERNGEDYICPNCTI [R43E]: the abundance fitness came to 0.133 ± 0.12. For the variant GYDPNALYCICRQPHNNRFMICCDRCEEWFHGDCVGISEARGPLLERNGEDYICPNCTI [R43P], the abundance fitness was determined as 0.182 ± 0.078. Under GYDPNALYCICRQPHNNRFMICCDRCEEWFHGDCVGISEARGMLLERNGEDYICPNCTI [R43M] stands 0.017 ± 0.12; under GYDPNALYCICRQPHNNRFMICCDRCEEWFHGDCVGISEARGHLLERNGEDYICPNCTI [R43H], 0.154 ± 0.18; under GYDPNALYCICRQPHNNRFMICCDRCEEWFHGDCVGISEARGALLERNGEDYICPNCTI [R43A], 0.143 ± 0.15.
